Assay [1] deals with T1, calcium-signal modulating cyclophilin ligand (CAML) (Homo sapiens, UniProt P49069).
T1 construct: made in house; host or cells: yeast (two-hybrid prey from a human fetal brain cDNA library); E. coli (pull-down); 293T cells (transfected, co-precipitation)
T1 sequence (P49069 1-296): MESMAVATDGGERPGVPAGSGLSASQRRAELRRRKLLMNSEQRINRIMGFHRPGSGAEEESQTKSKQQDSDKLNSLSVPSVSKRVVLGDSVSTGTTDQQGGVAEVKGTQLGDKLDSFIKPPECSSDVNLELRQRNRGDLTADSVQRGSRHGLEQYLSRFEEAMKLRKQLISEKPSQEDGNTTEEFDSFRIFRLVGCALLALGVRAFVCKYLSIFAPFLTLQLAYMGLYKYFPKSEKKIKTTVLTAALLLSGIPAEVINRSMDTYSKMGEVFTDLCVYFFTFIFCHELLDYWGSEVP
The assay can be described thus: Binding of SITH-1 to host protein (yeast two-hybrid, in vitro pull-down, co-precipitation). Particulars: yeast two-hybrid with human fetal brain cDNA library; GST pull-down; co-precipitation in 293T cells. As for the experimental part:
To study the function of the protein SITH-1, a host protein to which the protein SITH-1 would bind within cells was identified. This was performed by screening of a human fetal brain cDNA library by means of yeast two-hybrid assay with the protein SITH-1 used as a bait.

In assay [2] the test system is astrocyte-like glial cell line (U373). The assay can be described thus: Fluorescent antibody staining of CAML in SITH-1-expressing U373 cells. The format is cell-based. Particulars: SITH-1 expressed in U373 vs untreated U373 cells. The text has this:
CAML is a protein that has been reported to show strong expression in lymphocytes and in a brain, and it is known that CAML has ability to increase an intracellular calcium concentration. Thus, in order to see whether the protein SITH-1 would be mediated by CAML to increase the intracellular calcium concentration, both an astrocyte-like glial cell line (U373) in which SITH-1 had been expressed and untreated U373 cells were stained by the fluorescent antibody technique using anti-SITH-1 antibodies and anti-CAML antibodies.

Assay [3] has the same test system. Briefly: Intracellular calcium concentration measured with Fura2 after thapsigargin stimulation. It counts as cell-based. Conditions: SITH-1 transferred via retrovirus vector into U373, thapsigargin (TG) stimulation, vs vector only. How it is done: In another experiment, two samples were prepared; one sample was prepared by transferring SITH-1 into an astrocyte-like glial cell line (U373) via a retrovirus vector, and the other sample was prepared by introducing only the vector into U373. Each sample was stimulated with thapsigargin (TG), and an intracellular calcium concentration was measured using Fura2.

The test system of assay [4] is mice. The assay can be described thus: Tail suspension test. It counts as in vivo. Particulars: SITH-1 transferred using adenovirus vector, GFAP promoter, injected into brains of newborn mice. As for the experimental part:
(§1) SITH-1 having a glial fibrillary acidic protein (GFAP) promoter linked upstream of its open reading frame was injected into the brains of newborn mice using an adenovirus vector or a retrovirus vector. GFAP is a protein expressed specifically in glial cells such as astrocytes.
(§2) A tail suspension test and a forced swimming test were conducted to evaluate mental disorders; these tests are commonly used to observe patients with depression or manic-depressive illness. Specifically, mice into which SITH-1 was transferred using an adenovirus vector were subjected to a tail suspension test. […] Subsequently, mice into which SITH-1 was transferred using a retrovirus vector were subjected to a forced swimming test.

Assay [5] has as its system mice. The assay can be described thus: Forced swimming test. The format is in vivo. How it is done: as §1, §2
Assay [6] has as its system mice. Briefly: Startle response (prepulse inhibition). The format is in vivo. Conditions: SITH-1 transferred using adenovirus vector. As for the experimental part: as §1
The present inventors also measured a prepulse inhibition in order to check for any abnormality in a startle response, which abnormality is to be found in patients with manic-depressive illness and schizophrenia. Specifically, mice into which SITH-1 was transferred using the adenovirus vector were evaluated for a startle response by measuring the prepulse inhibition.

Assay [7] concerns mice. The assay can be described thus: Motor activity in terms of wheel running activity. Conditions: vs EGFP control mice. The format is in vivo. As for the experimental part: Next, an open reading frame of SITH-1 was linked downstream of a GFAP promoter, and expressed in glial cells of mice using an adenovirus vector; three weeks later, the mice were measured for their motor activity in terms of wheel running activity.
Subsequently, an open reading frame of SITH-1 was linked downstream of a GFAP promoter, and expressed in glial cells of mice using a lentivirus vector; eight weeks later, the mice were measured for their motor activity in terms wheel running activity.

B1: SITH-1: protein expressed specifically during latent infection with HHV-6; approximately 17.5 kDa, 159 amino acids, SEQ ID NO: 1 (protein)
chain: MGYEEKVSATGKTRLKILACLIVLILAAAITMLTLEIISNQKRTTTDLEAVTVALKHVSTSLASCTESTTSVHTDSVTSQPTKNKESRKKIEGKSPSWVQALTTASGIILLFCIMMIFITCSWTTEKDTEKSEVQSYASSVETLDSLNEAIIPKTEMNV
modifications: Human herpesvirus 6
Consider B1, for which, in assay [1], the “binding to CAML” value is reported as “bind strongly”. For the same molecule, the “amount of CAML” value in assay [2] is “more CAML was found than in the untreated U373 cells”. Moreover, the intracellular calcium concentration result in assay [3] is reported as “considerably higher”. Further, the immobile time entry is “markedly shorter immobile time” with mice [4]; “longer immobile time” with mice [5] (retrovirus vector at HIGH titer, vs EGFP control mice); “shorter immobile time” in the assay on mice [5] (retrovirus vector at LOW titer). Further, in the assay with mice [6], the prepulse inhibition result was “markedly lower prepulse inhibition”. The “motor activity (wheel running activity)” value in the assay on mice [7] (adenovirus vector, three weeks later) was “motor activity enhanced”; with mice [7] (lentivirus vector, eight weeks later), “motor activity suppressed”.

Values taken from US10487118B2, “Factor involved in latent infection with herpes virus, and use thereof” (Virus Ikagaku Kenkyusho Inc., priority 2007, dated 2019).
